In patent US20120282646A1 (KOREA RESEARCH INSTITUTE OF BIOSCIENCE AND BIOTECHNOLOGY, published 2012):

B1: GST-SOCS2-ΔSH2 (mutant SOCS2 in which the SH2 domain was deleted, N-terminal GST tag) (other)
chain: MTLRCLEPSGNGGEGTRSQWGTAGSAEEPSPQAARLAKALRELGQ
notes: also called pGST-SOCS2-ΔSH2; not shown: N-terminal GST tag of the pEBG vector and the junction to it
B2: GST-SOCS2 (SOCS2, suppressor of cytokine signaling 2, with N-terminal GST tag, expressed from pGST-SOCS2) (other, UniProt O14508 1-198, looked up)
chain: MTLRCLEPSGNGGEGTRSQWGTAGSAEEPSPQAARLAKALRELGQTGWYWGSMTVNEAKEKLKEAPEGTFLIRDSSHSDYLLTISVKTSAGPTNLRIEYQDGKFRLDSIICVKSKLKQFDSVVHLIDYYVQMCKDKRTGPEAPRNGTVHLYLTKPLYTSAPSLQHLCRLTINKCTGAIWGLPLPTRLKDYLEEYKFQV
notes: Overexpressed in 293T or NK-92 cells and tested in cell lysate; not shown: N-terminal GST tag from the pEBG vector

What was measured:
[1] = target: T1, Flag-Pyk2 (proline-rich tyrosine kinase 2 with N-terminal Flag tag, expressed from pFlag-Pyk2) (UniProt Q14289 1-1009); experiment: anti-Flag immunoprecipitation from 293T lysate, Western blot with anti-GST
T1 construct: Overexpressed in cells; not shown: N-terminal Flag tag from the pBICEP-CMV-1 vector
Excerpt: To determine a SOCS2 domain which is important in the binding with Pyk2, the present inventors carried out the following experiment. HA-Ubiquitin, pFlag-Pyk2, and, GST expression vector, pGST-SOCS2, pGST-SOCS2-ΔSH2 or pGST-SOCS2-ΔSOCS were cotransformed into 293T cells using Lipofectamin 2000. After 4 hr of transformation, the medium was replaced to a new culture medium, and 24 hr later, cells were lysed. The each cell lysate was allowed to react with anti-Flag antibody. The antigen-antibody complexes were precipitated by incubation at 4° C. for 1 day with G-protein-conjugated agarose. The immunoprecipitated complexes were washed with 1×PBS. Western blot analysis was performed by the same method in Example <2-1> using anti-GST antibody, anti-Flag antibody, or anti-HA antibody (Santa Cruz, U.S.A.).

[2] = target: T1, Flag-Pyk2 (proline-rich tyrosine kinase …); experiment: anti-Flag immunoprecipitation from NK-92 lysate, Western blot with anti-GST
Excerpt: (§1) From Example <12-4>, it was confirmed that phosphorylated Pyk2 and SOCS2 bind each other. To determine whether phosphorylation of Pyk2 is important in the binding with SOCS2 or not, the present inventors carried out the following experiment. First of all, HA-ubiquitin, pGST-SOCS2, and, pFlag-Pyk2 or pFlag-Pyk2-Y402F were cotransformed into NK-92 cells using Lipofectamin 2000. After 4 hr of transformation, the medium was replaced to a new culture medium, and 24 hr later, cells were lysed. The each cell lysate was allowed to react with anti-Flag antibody. The antigen-antibody complexes were precipitated by incubation at 4° C. for 1 day with G-protein-conjugated agarose. The immunoprecipitated complexes were washed with 1×PBS. Western blot analysis was performed by the same method in Example <2-1> using anti-p-Pyk2^Tyr402 antibody, anti-GST antibody, anti-Flag antibody or anti-HA antibody.

[3] = target: T2, Flag-Pyk2-Y402F (mutant Pyk2 in which tyrosine 402 had been mutated to phenylalanine, N-terminal Flag tag) (UniProt Q14289 1-1009); experiment: as above
T2 construct: Made from pFlag-Pyk2 by site-directed mutagenesis; also called pFlag-Pyk2-Y402F; not shown: N-terminal Flag tag from the pBICEP-CMV-1 vector
Excerpt: as §1

T1 sequence (Q14289 whole entry): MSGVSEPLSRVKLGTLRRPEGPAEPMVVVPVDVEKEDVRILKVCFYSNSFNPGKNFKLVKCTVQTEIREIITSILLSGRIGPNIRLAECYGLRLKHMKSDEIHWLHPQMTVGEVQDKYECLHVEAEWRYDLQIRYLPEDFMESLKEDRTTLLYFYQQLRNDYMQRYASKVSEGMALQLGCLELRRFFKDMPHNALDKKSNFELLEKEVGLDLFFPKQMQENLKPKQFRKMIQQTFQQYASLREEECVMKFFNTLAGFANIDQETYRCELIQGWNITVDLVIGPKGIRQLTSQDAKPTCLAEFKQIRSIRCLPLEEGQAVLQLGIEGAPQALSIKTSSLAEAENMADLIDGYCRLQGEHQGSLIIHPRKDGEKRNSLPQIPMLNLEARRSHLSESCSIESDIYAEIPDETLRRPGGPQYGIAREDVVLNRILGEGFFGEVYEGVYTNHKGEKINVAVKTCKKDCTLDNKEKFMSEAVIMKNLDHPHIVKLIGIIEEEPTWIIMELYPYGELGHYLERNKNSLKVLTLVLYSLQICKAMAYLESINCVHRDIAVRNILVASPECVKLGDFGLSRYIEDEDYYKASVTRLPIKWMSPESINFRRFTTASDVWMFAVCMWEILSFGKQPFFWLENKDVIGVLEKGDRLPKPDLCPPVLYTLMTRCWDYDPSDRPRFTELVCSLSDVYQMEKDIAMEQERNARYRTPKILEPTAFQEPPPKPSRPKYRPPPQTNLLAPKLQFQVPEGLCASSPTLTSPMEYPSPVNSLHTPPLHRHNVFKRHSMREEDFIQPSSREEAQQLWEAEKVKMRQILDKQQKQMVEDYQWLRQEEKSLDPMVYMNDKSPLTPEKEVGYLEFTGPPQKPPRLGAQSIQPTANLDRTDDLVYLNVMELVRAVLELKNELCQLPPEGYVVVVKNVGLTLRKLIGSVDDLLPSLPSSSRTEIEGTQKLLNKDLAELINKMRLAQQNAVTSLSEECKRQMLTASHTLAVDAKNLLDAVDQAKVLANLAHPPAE
T2 sequence (Q14289 whole entry Y402F): as the sequence (Q14289 whole entry) above, with Y402F counted along it

| Binder | binding result [1] | binding result [2] | binding result [3] |
| --- | --- | --- | --- |
| B1 | no binding | – | – |
| B2 | – | binds | no binding |
